Measured values as given in the supplement of paper PMC7877785.
± gives the uncertainty stated by the source.

Assay: self-splicing fitness, log relative to wild type (ln ratio); higher = more splicing; Tetrahymena group I intron in knt gene, E. coli kanamycin selection, DiMSum; sequences stand for … in CUCUCU…GGAGGGAAAAGUUAUCAGGCAUGCACCUGGUAGCUAGUCUUUAAACCAAUAGAUUGCAUCGGUUUAAAAGGCAAGACCGUCAAAUUGCGGGAAAGGGGUCAACAGCCGUUCAGUACCAAGUCUCAGGGGAAACUUUGAGAUGGCCUUGCAAAGGGUAUGGUAAUAAGCUGACGGACAUGGUCCUAACCACGCAGCCAAGUCCUAAGUCAACAGAUCUUCUGUUGAUAUGGAUGCAGUUCACAGACUAAAUGUCGGUCGGGGAAGAUGUAUUCUUCUCAUAAGAUAUAGUCGGACCUCUCCUUAAUGGGAGCUAGCGGAUGAAGUGAUGCAACACUGGAGCCGCUGGGAACUAAUUUGUAUGCGAAAGUAUAUUGAUUAGUUUUGGAGUACUCGUGGUCG
Outline: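 The eight P1ex-region nucleotides of an intron in the knt kanamycin-resistance gene on pET-22b(+) were all randomised and the library put into E. coli BL21(DE3). Six replicate transformations were grown overnight at 37°C or 30°C on LB agar with or without 25 μg/mL kanamycin, together with 100 μg/mL carbenicillin, 50 μM IPTG and 0.2% rhamnose. Colonies were pooled and amplicon-sequenced on an Illumina HiSeq 2500. Fitness from DiMSum is the error-weighted combination of wild-type-normalised replicate fold changes, kanamycin over none.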

| Sequence | self-splicing fitness (ln) (30 °C) | self-splicing fitness (ln) (37 °C) |
| --- | --- | --- |
| GGAAAGCAAUAUUACGAUUU | -0.238 ± 0.081 | 0.189 ± 0.1 |
| GGAAAGCAAUAUUACGCAAU | -2.27 ± 0.45 | -0.77 ± 0.32 |
| GGAAAGCAAUAUUACGCAUC | -2.7 ± 0.17 | -2.49 ± 0.31 |
| GGAAAGCAAUAUUACGCAUG | -1.24 ± 0.084 | -0.813 ± 0.11 |
| GGAAAGCAAUAUUACGCCCU | -1.16 ± 0.21 | -1.25 ± 0.21 |
| GGAAAGCAAUAUUACGCCGG | – | -2.24 ± 0.37 |
| GGAAAGCAAUAUUACGCGAC | -2.95 ± 0.24 | -1.73 ± 0.25 |
| GGAAAGCAAUAUUACGCUUC | -2.84 ± 0.3 | – |
| GGAAAGCAAUAUUACGGAAC | -3.58 ± 0.43 | – |
| GGAAAGCAAUAUUACGGGAU | -2.64 ± 0.17 | -1.1 ± 0.14 |
| GGAAAGCAAUAUUACGGUAC | -0.689 ± 0.13 | -1.36 ± 0.19 |
| GGAAAGCAAUAUUACGUAAG | -1.87 ± 0.13 | -1.18 ± 0.15 |
| GGAAAGCAAUAUUACGUAGU | -2.97 ± 0.11 | -1.23 ± 0.088 |
| GGAAAGCAAUAUUACGUCAA | -1.7 ± 0.19 | -0.985 ± 0.18 |
| GGAAAGCAAUAUUACGUCCG | -0.651 ± 0.23 | -0.324 ± 0.21 |
| GGAAAGCAAUAUUACGUUAA | -3.35 ± 0.16 | -1.84 ± 0.15 |
| GGAAAGCAAUAUUACGUUAC | -2.63 ± 0.16 | -0.204 ± 0.11 |
| GGAAAGCAAUAUUACGUUAU | -2.24 ± 0.09 | -1.16 ± 0.12 |
| GGACAGCAAUAUUACGACAC | -0.596 ± 0.1 | 0.167 ± 0.13 |
| GGACAGCAAUAUUACGAGAC | -2.05 ± 0.33 | -1.1 ± 0.16 |
| GGACAGCAAUAUUACGCCAU | -1.98 ± 0.26 | -2.03 ± 0.46 |
| GGACAGCAAUAUUACGCGAC | -2.27 ± 0.28 | -1.09 ± 0.24 |
| GGACAGCAAUAUUACGGAAG | -2.62 ± 0.13 | -1.36 ± 0.14 |
| GGACAGCAAUAUUACGGAGC | -0.749 ± 0.089 | -0.621 ± 0.09 |
| GGACAGCAAUAUUACGGUGC | -1.58 ± 0.094 | -0.8 ± 0.11 |

| Sequence | self-splicing fitness (ln) (30 °C) | self-splicing fitness (ln) (37 °C) |
| --- | --- | --- |
| GGACAGCAAUAUUACGUCCC | -3.31 ± 0.4 | – |
| GGACAGCAAUAUUACGUCGA | 0.00434 ± 0.082 | 0.755 ± 0.12 |
| GGACAGCAAUAUUACGUCUU | -3.29 ± 0.091 | -1.9 ± 0.099 |
| GGACAGCAAUAUUACGUUCC | -2.58 ± 0.3 | -2.84 ± 0.45 |
| GGAGAGCAAUAUUACGAACC | -2.16 ± 0.43 | – |
| GGAGAGCAAUAUUACGACAC | -0.961 ± 0.28 | 0.238 ± 0.22 |
| GGAGAGCAAUAUUACGCAUG | – | -0.0425 ± 0.28 |
| GGAGAGCAAUAUUACGCCUA | -2.28 ± 0.32 | -2.48 ± 0.34 |
| GGAGAGCAAUAUUACGCGAC | -2.83 ± 0.21 | -2.22 ± 0.34 |
| GGAGAGCAAUAUUACGCUGA | -2.98 ± 0.19 | -1.36 ± 0.24 |
| GGAGAGCAAUAUUACGGCUG | -2.1 ± 0.21 | -0.692 ± 0.21 |
| GGAGAGCAAUAUUACGUCAU | -2.38 ± 0.31 | -2.61 ± 0.33 |
| GGAGAGCAAUAUUACGUGAU | -3.33 ± 0.24 | -1.75 ± 0.31 |
| GGAGAGCAAUAUUACGUGCA | -1.92 ± 0.29 | -2.03 ± 0.32 |
| GGAGAGCAAUAUUACGUGGU | -3.28 ± 0.16 | -3.01 ± 0.26 |
| GGAGAGCAAUAUUACGUGUA | -2.77 ± 0.29 | -3.17 ± 0.33 |
| GGAGAGCAAUAUUACGUUUA | -3.83 ± 0.33 | -2.03 ± 0.17 |
| GGAUAGCAAUAUUACGAAAU | -1.09 ± 0.12 | -0.476 ± 0.12 |
| GGAUAGCAAUAUUACGACAU | -0.425 ± 0.014 | -0.0181 ± 0.034 |
| GGAUAGCAAUAUUACGACUU | 0.215 ± 0.18 | 0.847 ± 0.17 |
| GGAUAGCAAUAUUACGAUAU | -0.868 ± 0.14 | -0.583 ± 0.19 |
| GGAUAGCAAUAUUACGAUGG | -1.27 ± 0.38 | – |
| GGAUAGCAAUAUUACGAUUC | -2.52 ± 0.15 | -0.731 ± 0.16 |
| GGAUAGCAAUAUUACGCCGU | -1.74 ± 0.25 | -0.441 ± 0.2 |
| GGAUAGCAAUAUUACGCGGA | -2.65 ± 0.43 | -1.57 ± 0.31 |

| Sequence | self-splicing fitness (ln) (30 °C) | self-splicing fitness (ln) (37 °C) |
| --- | --- | --- |
| GGAUAGCAAUAUUACGCGUG | -1.49 ± 0.087 | -0.118 ± 0.08 |
| GGAUAGCAAUAUUACGCUCG | -0.451 ± 0.24 | -0.208 ± 0.35 |
| GGAUAGCAAUAUUACGCUGA | -1.13 ± 0.13 | -1.19 ± 0.14 |
| GGAUAGCAAUAUUACGGAAC | -1.9 ± 0.22 | -2.03 ± 0.29 |
| GGAUAGCAAUAUUACGGACA | -1.68 ± 0.16 | -0.273 ± 0.16 |
| GGAUAGCAAUAUUACGGAGC | -3.05 ± 0.26 | -2.51 ± 0.25 |
| GGAUAGCAAUAUUACGGCCG | -0.857 ± 0.18 | 0.103 ± 0.2 |
| GGAUAGCAAUAUUACGGGAG | – | -2.52 ± 0.21 |
| GGAUAGCAAUAUUACGGGCU | -2.29 ± 0.14 | -0.442 ± 0.12 |
| GGAUAGCAAUAUUACGGUGC | -1.85 ± 0.48 | -2.5 ± 0.49 |
| GGAUAGCAAUAUUACGUUAA | -2.35 ± 0.16 | -1.9 ± 0.16 |
| GGCAAGCAAUAUUACGAAAA | -0.934 ± 0.1 | -1.41 ± 0.15 |
| GGCAAGCAAUAUUACGAACA | -2.07 ± 0.24 | -0.92 ± 0.18 |
| GGCAAGCAAUAUUACGAAGC | -1.69 ± 0.27 | -0.628 ± 0.47 |
| GGCAAGCAAUAUUACGAAGU | -1.94 ± 0.093 | -1.89 ± 0.12 |
| GGCAAGCAAUAUUACGAAUG | -2.14 ± 0.15 | -1.45 ± 0.16 |
| GGCAAGCAAUAUUACGACAC | -0.649 ± 0.15 | 0.129 ± 0.28 |
| GGCAAGCAAUAUUACGACGU | -0.0263 ± 0.086 | 0.872 ± 0.12 |
| GGCAAGCAAUAUUACGAUAA | -1.23 ± 0.11 | 0.298 ± 0.13 |
| GGCAAGCAAUAUUACGAUAC | -0.974 ± 0.076 | -0.363 ± 0.087 |
| GGCAAGCAAUAUUACGAUUU | -0.299 ± 0.058 | 0.164 ± 0.077 |
| GGCAAGCAAUAUUACGCCAG | – | -2.52 ± 0.41 |
| GGCAAGCAAUAUUACGCCGU | -2.44 ± 0.34 | -0.00259 ± 0.29 |
| GGCAAGCAAUAUUACGCGAG | -2.32 ± 0.14 | -3.34 ± 0.24 |
| GGCAAGCAAUAUUACGCGCU | -3.35 ± 0.42 | -3.25 ± 0.43 |

| Sequence | self-splicing fitness (ln) (30 °C) | self-splicing fitness (ln) (37 °C) |
| --- | --- | --- |
| GGCAAGCAAUAUUACGCGGU | -2.97 ± 0.14 | -1.37 ± 0.12 |
| GGCAAGCAAUAUUACGCGUU | -0.907 ± 0.075 | -0.815 ± 0.1 |
| GGCAAGCAAUAUUACGCUGC | -3.37 ± 0.27 | – |
| GGCAAGCAAUAUUACGGAGG | -4.1 ± 0.18 | -2.87 ± 0.16 |
| GGCAAGCAAUAUUACGGAUA | -0.889 ± 0.1 | -0.586 ± 0.097 |
| GGCAAGCAAUAUUACGGAUC | -0.625 ± 0.096 | -0.11 ± 0.099 |
| GGCAAGCAAUAUUACGGCGG | -2.44 ± 0.19 | -1.13 ± 0.2 |
| GGCAAGCAAUAUUACGGGAC | -2.46 ± 0.13 | -0.918 ± 0.1 |
| GGCAAGCAAUAUUACGGUCU | -0.851 ± 0.093 | -0.575 ± 0.1 |
| GGCAAGCAAUAUUACGUAAG | -0.742 ± 0.072 | -1 ± 0.1 |
| GGCAAGCAAUAUUACGUAUA | -1.02 ± 0.066 | -0.515 ± 0.07 |
| GGCAAGCAAUAUUACGUCCC | – | -0.249 ± 0.28 |
| GGCAAGCAAUAUUACGUGGC | -3.53 ± 0.34 | -1.28 ± 0.19 |
| GGCAAGCAAUAUUACGUGGG | -3.42 ± 0.13 | -1.85 ± 0.1 |
| GGCAAGCAAUAUUACGUUAC | -1.39 ± 0.12 | -1.5 ± 0.14 |
| GGCCAGCAAUAUUACGAAGC | -2 ± 0.11 | 0.134 ± 0.13 |
| GGCCAGCAAUAUUACGACAU | -1.21 ± 0.013 | -0.437 ± 0.032 |
| GGCCAGCAAUAUUACGAGCU | -2.58 ± 0.4 | – |
| GGCCAGCAAUAUUACGAUCG | -3.35 ± 0.3 | -1.27 ± 0.15 |
| GGCCAGCAAUAUUACGCAAC | -1.19 ± 0.1 | -0.97 ± 0.12 |
| GGCCAGCAAUAUUACGCAGC | -3.08 ± 0.37 | -1.88 ± 0.33 |
| GGCCAGCAAUAUUACGCAGU | -1.37 ± 0.12 | -1.86 ± 0.19 |
| GGCCAGCAAUAUUACGCCAG | -3.88 ± 0.37 | -1.59 ± 0.35 |
| GGCCAGCAAUAUUACGCCAU | -3.57 ± 0.33 | -2.12 ± 0.28 |
